Measured values: PMC12599251
Values joined by “and” are separate entries in the source; they are usually repeats but may differ in a detail not shown here. Equal values may be shown once. One block for each substance: values may come before it.

Key:
[1] = molecular target: Human Hsp90β (heat shock protein 90 beta), wild type (human) (UniProt P08238); test: AUC; sedimentation velocity, 42,000 rpm, 20°C, 11-15 uM protein, absorbance at 280 nm, continuous c(S) distribution (SEDFIT); peroxynitrite-treated samples dialyzed beforehand
[2] = molecular target: Human Hsp90β (heat shock protein 90 beta), wild type (human) (UniProt P08238); test: native gel or EMSA; native PAGE: 20 ug protein (1 mg/ml) on 4-20% polyacrylamide gels in native loading buffer (Tris pH 6.8, 50% glycerol); directly after purification and after incubation at 4°C or 25°C in PBS pH 7.4 for up to 48 h
[3] = molecular target: Human Hsp90β treated with 0.5 mM peroxynitrite (human) (UniProt P08238); test: AUC; sedimentation velocity, 42,000 rpm, 20°C, 11-15 uM protein, absorbance at 280 nm, continuous c(S) distribution (SEDFIT); peroxynitrite-treated samples dialyzed beforehand
[4] = molecular target: Human Hsp90β with 3-nitrotyrosine at position 33 (human) (UniProt P08238); test: as above
[5] = molecular target: Human Hsp90β with 3-nitrotyrosine at position 33 (human) (UniProt P08238); test: as above; remark: listed apart in the source
[6] = molecular target: Human Hsp90β with 3-nitrotyrosine at position 33 (human) (UniProt P08238); test: native gel or EMSA; native PAGE: 20 ug protein (1 mg/ml) on 4-20% polyacrylamide gels in native loading buffer (Tris pH 6.8, 50% glycerol); directly after purification and after incubation at 4°C or 25°C in PBS pH 7.4 for up to 48 h
[7] = molecular target: Human Hsp90β with 3-nitrotyrosine at position 56 (human) (UniProt P08238); test: AUC; sedimentation velocity, 42,000 rpm, 20°C, 11-15 uM protein, absorbance at 280 nm, continuous c(S) distribution (SEDFIT); peroxynitrite-treated samples dialyzed beforehand
[8] = molecular target: Human Hsp90β with 3-nitrotyrosine at position 56 (human) (UniProt P08238); test: native gel or EMSA; native PAGE: 20 ug protein (1 mg/ml) on 4-20% polyacrylamide gels in native loading buffer (Tris pH 6.8, 50% glycerol); directly after purification and after incubation at 4°C or 25°C in PBS pH 7.4 for up to 48 h
[9] = molecular target: Human Hsp90β with 3-nitrotyrosine at positions 33 and 56 (human) (UniProt P08238); test: AUC; sedimentation velocity, 42,000 rpm, 20°C, 11-15 uM protein, absorbance at 280 nm, continuous c(S) distribution (SEDFIT); peroxynitrite-treated samples dialyzed beforehand

Sequence of Human Hsp90β (heat shock protein 90 beta), wild type, P08238 1-724 (natural protein; other documents disagree on this pair) (P08238 whole entry): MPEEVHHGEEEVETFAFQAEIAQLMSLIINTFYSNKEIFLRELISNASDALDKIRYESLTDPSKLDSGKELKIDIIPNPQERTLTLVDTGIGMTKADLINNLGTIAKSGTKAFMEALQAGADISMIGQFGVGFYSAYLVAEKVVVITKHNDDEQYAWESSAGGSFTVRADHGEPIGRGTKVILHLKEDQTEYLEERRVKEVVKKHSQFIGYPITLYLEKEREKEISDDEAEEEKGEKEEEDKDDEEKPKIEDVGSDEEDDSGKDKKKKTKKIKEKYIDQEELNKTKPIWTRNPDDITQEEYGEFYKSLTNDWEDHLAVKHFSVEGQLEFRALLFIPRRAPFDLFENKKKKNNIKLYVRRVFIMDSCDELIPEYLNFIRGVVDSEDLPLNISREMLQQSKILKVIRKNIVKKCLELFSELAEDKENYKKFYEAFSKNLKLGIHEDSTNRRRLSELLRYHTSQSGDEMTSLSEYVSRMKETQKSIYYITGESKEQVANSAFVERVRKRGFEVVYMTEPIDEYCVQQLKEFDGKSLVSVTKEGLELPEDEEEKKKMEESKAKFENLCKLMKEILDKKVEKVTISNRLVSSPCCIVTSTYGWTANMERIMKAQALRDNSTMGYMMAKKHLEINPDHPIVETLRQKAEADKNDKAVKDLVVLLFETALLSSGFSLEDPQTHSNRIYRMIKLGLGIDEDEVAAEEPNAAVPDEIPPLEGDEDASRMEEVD
Sequence of Human Hsp90β with 3-nitrotyrosine at positions 33 and 56, P08238 1-724 (natural protein; 3-nitrotyrosine at 33 and at 56 (sole oxidative modifications); 3-nitrotyrosine at 33 and at 56 (sole oxidative (P08238 whole entry): as above

Substance: Human Hsp90β treated with 0.5 mM peroxynitrite, P08238 1-724 (natural protein; nitration of Y33, Y56, Y276, Y484 and Y596 after treatment with 0.5 mM peroxynitrite; nitration of Y33, Y56, Y276, Y484 and Y596 after treatment with 0.5 mM peroxynitrite; other documents disagree on this pair)
stoichiometry N [3]: 2 and 4

Substance: Human Hsp90β with 3-nitrotyrosine at position 33, P08238 1-724 (natural protein; 3-nitrotyrosine at 33 (sole oxidative modification); 3-nitrotyrosine at 33 (sole oxidative modification); other documents disagree on this pair)
stoichiometry N [4]: 6
stoichiometry N [5]: 2
stoichiometry N [6]: 2

Substance: Human Hsp90β with 3-nitrotyrosine at position 56, P08238 1-724 (natural protein; 3-nitrotyrosine at 56 (sole oxidative modification); 3-nitrotyrosine at 56 (sole oxidative modification); other documents disagree on this pair)
stoichiometry N [7]: 2
stoichiometry N [8]: 2

Second part, the substance after the results:

stoichiometry N [1]: 2
stoichiometry N [2]: 2
Substance: Human Hsp90β (heat shock protein 90 beta), wild type, P08238 1-724 (natural protein; other documents disagree on this pair)

stoichiometry N [9]: 2 and 6
Substance: Human Hsp90β with 3-nitrotyrosine at positions 33 and 56, P08238 1-724 (natural protein; 3-nitrotyrosine at 33 and at 56 (sole oxidative modifications); 3-nitrotyrosine at 33 and at 56 (sole oxidative modifications); other documents disagree on this pair)
